Measurements reported in US20250340637A1 (ABPRO, published 2025).

T1: CynoCD3E (cyno, UniProt Q95LI5 22-117, limits assumed)
T1 construct: Recombinant analyte in SPR and antigen in ELISA; The construct is not described; also called cynomolgus CD3 epsilon
T1 sequence (looked up): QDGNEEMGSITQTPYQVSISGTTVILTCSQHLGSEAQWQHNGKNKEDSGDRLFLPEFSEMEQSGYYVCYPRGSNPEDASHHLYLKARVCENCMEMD


Key:
HuCD3E [1] = molecular target: T2, HuCD3E (Homo sapiens, UniProt P07766 23-126, limits assumed); experiment: SPR, Biacore 8K; CD3 Affinity column: Med; upper end of the range
T2 construct: Recombinant analyte in SPR and antigen in ELISA; also called human CD3; human CD3 epsilon
T2 sequence (P07766 23-126 limits assumed): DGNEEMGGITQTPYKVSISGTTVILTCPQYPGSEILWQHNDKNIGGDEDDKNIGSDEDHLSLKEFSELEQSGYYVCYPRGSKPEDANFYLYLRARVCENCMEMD

HuCD3E [2] = molecular target: T2, HuCD3E; experiment: SPR, Biacore 8K; CD3 Affinity column: Med; lower end of the range
HuCD3E [3] = molecular target: T2, HuCD3E; experiment: SPR, Biacore 8K; CD3 Affinity column: Hi
HuCD3E [4] = molecular target: T2, HuCD3E; experiment: SPR, Biacore 8K; CD3 Affinity column: Med; lower end of the range; remark: listed apart in the source
HuCD3E [5] = molecular target: T2, HuCD3E; experiment: SPR, Biacore 8K; CD3 Affinity column: Med; upper end of the range; remark: listed apart in the source
Protocol: (§1) Initially, the affinity measurement of the anti-CD3 clones were determined using a Surface Plasmon Resonance (SPR) biosensor, Biacore 8K (GE Healthcare). The equilibrium dissociation constant (KD) was calculated from the ratio of kd over ka. To determine the contribution of a specific residue to antibody affinity and expression, paratope mapping was performed by screening of NNK libraries. In brief, the VH and VL of the parental antibody were searched by using NCBI Ig-Blast (www.ncbi.nlm.nih.gov/projects/igblast/) and CDRs were defined by the KABAT delineation system. All residues within CDRs were defined and mutated by NNK method. Each individual NNK library was generated per residue based on the FASEBA platform with a theoretical diversity at 20. The DNA encoding both heavy chain and light chain were inserted into a mammalian expression vector, transfected into CHO-S cells, and stable clones of highest expression were selected. Supernatants were collected from shaker flasks and purified on protein A affinity chromatography.
(§2) Affinity ranking. Binding between the parental and affinity-tuned bispecific antibodies and human and cyno target proteins (HER2 and CD3) was validated by ELISA, and a Biacore 8K was used to study the kinetics of the interaction between the antigen and the bispecific antibodies.

CynoCD3E = molecular target: T1, CynoCD3E; experiment: SPR, Biacore 8K; antibody captured, CD3E as analyte
Protocol: as §1, §2

HuCD3E [6] = molecular target: T2, HuCD3E; experiment: as above
Protocol: as §1, §2

Row | Binder | Kd (HuCD3E [1]) | Kd (HuCD3E [2]) | Kd (HuCD3E [4]) | Kd (HuCD3E [5]) | also measured
1 | 32G4-V8-v5.2 (antibody, V domains shown) VH: EVQLVESGGGLVQPGGSLKLSCAASGFTFNTYAMNWVRQAPGKGLEWVARIRSKYNNYATYKADSVKDRFTISRDDSKNTAYLQMNSLKTEDTAVYYCVRHGNFGNSYVSWFAYWGQGTLVTVSS VL: QTVVTQEPSLTVSPGGTVTLTCRSSTGAVTTSNYANWVQQKPGQAFRGLIGGTNKRAPGVPARFSGSLLGGKAALTLSGVQPEDEAIYFCALWYSNLWVFGGGTKLTVL | ≤ 100 nM | ≥ 10 nM |  |  | 
2 | ABP100s.11.0 (antibody, V domains shown) VH: EVQLLESGGGLVQPGGSLRLSCAASGFTFNTYAMNWVRQAPGKGLEWVSRIRSKYNNYATYYADSVKDRFTISRDNSKNTLYLQMNSLRAEDTAVYYCAKHGNFGNSYVSWFAYWGQGTTVTVSS VL: QAVVTQEPSLTVSPGGTVTLTCRSSTGAVTTSNYANWFQQKPGQAPRTLIYGTNKRAPWTPARFSGSLLGGKAALTLSGAQPEDEAEYYCALWYSNLWVFGGGTKLTVL |  |  |  |  | Kd (HuCD3E [3]): < 10 nM
3 | ABP100s.11.5 (antibody, V domains shown) VH: EVQLLESGGGLVQPGGSLRLSCAASGFTFNTYAMNWVRQAPGKGLEWVSRIRSKYNNYATYYADSVKDRFTISRDNSKNTLYLQMNSLRAEDTAVYYCAKHGNFGNSYVSWFAYWGQGTTVTVSS VL: QAVVTQEPSLTVSPGGTVTLTCRSSTGAVTTSNYANWFQQKPGQAPRTLIYGTNKRAPWTPARFSGSLLGGKAALTLSGAQPEDEAEYYCALWYSNLWVFGGGTKLTVL |  |  |  |  | Kd (HuCD3E [3]): < 10 nM
4 | 47D10-V7-v5.2 (antibody, V domains shown) VH: EVQLVESGGGLVQPGGSLKLSCAASGFTFNTYAMNWVRQAPGKGLEWVARIRSKYNNYATYKADSVKDRFTISRDDSKNTAYLQMNSLKTEDTAVYYCVRHGNFGNSYVSWFAYWGQGTLVTVSS VL: QTVVTQEPSLTVSPGGTVTLTCRSSTGAVTTSNYANWVQQKPGQAFRGLIGGTNKRAPGVPARFSGSLLGGKAALTLSGVQPEDEAIYFCALWYSNLWVFGGGTKLTVL | ≤ 100 nM | ≥ 10 nM |  |  | 
5 | 32G4-V8-v5.4 (antibody, V domains shown) VH: EVQLVESGGGLVQPGGSLKLSCAASGFTFNTYAMNWVRQAPGKGLEWVARIRSKYNNYATYYWDSVKDRFTISRDDSKNTAYLQMNSLKTEDTAVYYCVRHGNFGNSYVSWFAYWGQGTLVTVSS VL: QTVVTQEPSLTVSPGGTVTLTCRSSTGAVTTSNYANWVQQKPGQAFRGLIGGTNKRAPGVPARFSGSLLGGKAALTLSGVQPEDEAIYFCALWYSNLWVFGGGTKLTVL | ≤ 100 nM | ≥ 10 nM |  |  | 
6 | ABP100s.10.6.4 (antibody, V domains shown) VH: EVQLVESGGGLVQPGGSLKLSCAASGFTFNTYAMNWVRQAPGKCLEWVARIRSKYNNYATYYWDSVKDRFTISRDDSKNTAYLQMNSLKTEDTAVYYCVRHGNFGNSYVSWFAYWGQGTLVTVSS VL: QTVVTQEPSLTVSPGGTVTLTCRSSTGAVTTSNYANWVQQKPGQAFRGLIGGTNKRAPGVPARFSGSLLGGKAALTLSGVQPEDEAIYFCALWYSNLWVFGCGTKLTVL |  |  | ≥ 10 nM | ≤ 100 nM | 
7 | ABP100s.10.5.4 (antibody, V domains shown) VH: EVQLVESGGGLVQPGGSLKLSCAASGFTFNTYAMNWVRQAPGKCLEWVARIRSKYNNYATYYWDSVKDRFTISRDDSKNTAYLQMNSLKTEDTAVYYCVRHGNFGNSYVSWFAYWGQGTLVTVSS VL: QTVVTQEPSLTVSPGGTVTLTCRSSTGAVTTSNYANWVQQKPGQAFRGLIGGTNKRAPGVPARFSGSLLGGKAALTLSGVQPEDEAIYFCALWYSNLWVFGCGTKLTVL |  |  | ≥ 10 nM | ≤ 100 nM | 
8 | VH2 (SEQ ID NO: 21) + VL6 (SEQ ID NO: 19) (antibody, V domains shown, Humanized SP34 anti-CD3 variant; the text around it speaks of full-length bispecific antibodies; The sample heated at 42° C. is the same molecule and is marked under assay; also called VH2 + VL6) VH: EVQLVESGGGLVQPGGSLKLSCAASGFTFNTYAMNWVRQASGKGLEWVARIRSKYNNYATYYADSVKDRFTISRDDSKNTAYLQMNSLKTEDTAVYYCVRHGNFGNSYVSWFAYWGQGTLVTVSS VL: QTVVTQEPSLTVSPGGTVTLTCRSSTGAVTTSNYANWVQQKPGQAFRGLIGGTNKRAPGVPARFSGSLLGGKAALTLSGVQPEDEAIYFCALWYSNLWVFGGGTKLEIK |  |  |  |  | Kd (CynoCD3E): 1.7 nM; koff (CynoCD3E): 0.000821 s⁻¹; kon (CynoCD3E): 483000 M⁻¹ s⁻¹; Kd (HuCD3E [6]): 1.01 nM; koff (HuCD3E [6]): 0.000357 s⁻¹; kon (HuCD3E [6]): 352000 M⁻¹ s⁻¹
9 | ABP100s.10.5.3 (antibody, V domains shown) VH: EVQLVESGGGLVQPGGSLKLSCAASGFTFNTYAMNWVRQAPGKCLEWVARIRSKYNNYATYYADKVKDRFTISRDDSKNTAYLQMNSLKTEDTAVYYCVRHGNFGNSYVSWFAYWGQGTLVTVSS VL: QTVVTQEPSLTVSPGGTVTLTCRSSTGAVTTSNYANWVQQKPGQAFRGLIGGTNKRAPGVPARFSGSLLGGKAALTLSGVQPEDEAIYFCALWYSNLWVFGCGTKLTVL |  |  | ≥ 10 nM | ≤ 100 nM | 
10 | ABP100s.10.6.2 (antibody, V domains shown) VH: EVQLVESGGGLVQPGGSLKLSCAASGFTFNTYAMNWVRQAPGKCLEWVARIRSKYNNYATYKADSVKDRFTISRDDSKNTAYLQMNSLKTEDTAVYYCVRHGNFGNSYVSWFAYWGQGTLVTVSS VL: QTVVTQEPSLTVSPGGTVTLTCRSSTGAVTTSNYANWVQQKPGQAFRGLIGGTNKRAPGVPARFSGSLLGGKAALTLSGVQPEDEAIYFCALWYSNLWVFGCGTKLTVL |  |  | ≥ 10 nM | ≤ 100 nM | 
11 | ABP100s.10.5.2 (antibody, V domains shown) VH: EVQLVESGGGLVQPGGSLKLSCAASGFTFNTYAMNWVRQAPGKCLEWVARIRSKYNNYATYKADSVKDRFTISRDDSKNTAYLQMNSLKTEDTAVYYCVRHGNFGNSYVSWFAYWGQGTLVTVSS VL: QTVVTQEPSLTVSPGGTVTLTCRSSTGAVTTSNYANWVQQKPGQAFRGLIGGTNKRAPGVPARFSGSLLGGKAALTLSGVQPEDEAIYFCALWYSNLWVFGCGTKLTVL |  |  | ≥ 10 nM | ≤ 100 nM | 
12 | ABP100s.12.0 (antibody, V domains shown) VH: EVQLLESGGGLVQPGGSLRLSCAASGFTFNTYAMNWVRQAPGKCLEWVSRIRSKYNNYATYYADSVKDRFTISRDNSKNTLYLQMNSLRAEDTAVYYCAKHGNFGNSYVSWFAYWGQGTTVTVSS VL: QAVVTQEPSLTVSPGGTVTLTCRSSTGAVTTSNYANWFQQKPGQAPRTLIYGTNKRAPWTPARFSGSLLGGKAALTLSGAQPEDEAEYYCALWYSNLWVFGCGTKLTVL |  |  |  |  | Kd (HuCD3E [3]): < 10 nM
13 | 47D10-V7-v5.3 (antibody, V domains shown) VH: EVQLVESGGGLVQPGGSLKLSCAASGFTFNTYAMNWVRQAPGKGLEWVARIRSKYNNYATYYADKVKDRFTISRDDSKNTAYLQMNSLKTEDTAVYYCVRHGNFGNSYVSWFAYWGQGTLVTVSS VL: QTVVTQEPSLTVSPGGTVTLTCRSSTGAVTTSNYANWVQQKPGQAFRGLIGGTNKRAPGVPARFSGSLLGGKAALTLSGVQPEDEAIYFCALWYSNLWVFGGGTKLTVL | ≤ 100 nM | ≥ 10 nM |  |  | 
14 | 32G4-V8-v5.3 (antibody, V domains shown) VH: EVQLVESGGGLVQPGGSLKLSCAASGFTFNTYAMNWVRQAPGKGLEWVARIRSKYNNYATYYADKVKDRFTISRDDSKNTAYLQMNSLKTEDTAVYYCVRHGNFGNSYVSWFAYWGQGTLVTVSS VL: QTVVTQEPSLTVSPGGTVTLTCRSSTGAVTTSNYANWVQQKPGQAFRGLIGGTNKRAPGVPARFSGSLLGGKAALTLSGVQPEDEAIYFCALWYSNLWVFGGGTKLTVL | ≤ 100 nM | ≥ 10 nM |  |  | 
15 | ABP100s.12.5 (antibody, V domains shown) VH: EVQLLESGGGLVQPGGSLRLSCAASGFTFNTYAMNWVRQAPGKCLEWVSRIRSKYNNYATYYADSVKDRFTISRDNSKNTLYLQMNSLRAEDTAVYYCAKHGNFGNSYVSWFAYWGQGTTVTVSS VL: QAVVTQEPSLTVSPGGTVTLTCRSSTGAVTTSNYANWFQQKPGQAPRTLIYGTNKRAPWTPARFSGSLLGGKAALTLSGAQPEDEAEYYCALWYSNLWVFGCGTKLTVL |  |  |  |  | Kd (HuCD3E [3]): < 10 nM
16 | ABP100s.10.6.3 (antibody, V domains shown) VH: EVQLVESGGGLVQPGGSLKLSCAASGFTFNTYAMNWVRQAPGKCLEWVARIRSKYNNYATYYADKVKDRFTISRDDSKNTAYLQMNSLKTEDTAVYYCVRHGNFGNSYVSWFAYWGQGTLVTVSS VL: QTVVTQEPSLTVSPGGTVTLTCRSSTGAVTTSNYANWVQQKPGQAFRGLIGGTNKRAPGVPARFSGSLLGGKAALTLSGVQPEDEAIYFCALWYSNLWVFGCGTKLTVL |  |  | ≥ 10 nM | ≤ 100 nM | 
